Literature values as cited in publication PMC9147092.
Where two headings read alike, the source gives them in different places. Values belong to the substance of their own block, whether it stands above or below them.

Tests used:
BiP (Homo sapiens) [1] = biological target: BiP (Homo sapiens) (UniProt P11021)
BiP (Homo sapiens) [2] = biological target: BiP (Homo sapiens) (UniProt P11021); remark: listed apart in the source
BiP (Homo sapiens) [3] = biological target: BiP (Homo sapiens) (UniProt P11021); remark: listed apart in the source
ERdj2 (Homo sapiens) = ERdj2 (Homo sapiens) (UniProt Q9UGP8)
Chain of UniProt Q9UGP8 (Q9UGP8 whole entry): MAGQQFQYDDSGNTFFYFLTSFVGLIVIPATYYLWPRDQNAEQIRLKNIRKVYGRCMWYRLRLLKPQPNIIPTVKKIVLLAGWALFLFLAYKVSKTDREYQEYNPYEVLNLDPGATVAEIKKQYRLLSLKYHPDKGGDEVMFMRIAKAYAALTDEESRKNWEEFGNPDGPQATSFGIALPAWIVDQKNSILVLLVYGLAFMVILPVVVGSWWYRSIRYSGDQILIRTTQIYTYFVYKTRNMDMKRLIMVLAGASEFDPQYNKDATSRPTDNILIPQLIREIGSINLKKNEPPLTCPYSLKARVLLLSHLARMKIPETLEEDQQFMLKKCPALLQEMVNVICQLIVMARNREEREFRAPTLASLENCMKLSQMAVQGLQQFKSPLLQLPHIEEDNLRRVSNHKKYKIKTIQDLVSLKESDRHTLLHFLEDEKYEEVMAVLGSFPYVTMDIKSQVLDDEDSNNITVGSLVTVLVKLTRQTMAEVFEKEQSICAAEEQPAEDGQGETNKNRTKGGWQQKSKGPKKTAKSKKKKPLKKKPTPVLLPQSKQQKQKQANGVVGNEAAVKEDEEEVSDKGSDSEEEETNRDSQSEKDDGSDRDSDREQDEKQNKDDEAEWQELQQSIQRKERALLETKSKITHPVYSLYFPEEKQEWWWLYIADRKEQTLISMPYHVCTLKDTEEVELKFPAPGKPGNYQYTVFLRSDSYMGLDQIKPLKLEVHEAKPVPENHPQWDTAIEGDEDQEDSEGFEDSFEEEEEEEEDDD

Chain of UniProt P11021 (P11021 19-654): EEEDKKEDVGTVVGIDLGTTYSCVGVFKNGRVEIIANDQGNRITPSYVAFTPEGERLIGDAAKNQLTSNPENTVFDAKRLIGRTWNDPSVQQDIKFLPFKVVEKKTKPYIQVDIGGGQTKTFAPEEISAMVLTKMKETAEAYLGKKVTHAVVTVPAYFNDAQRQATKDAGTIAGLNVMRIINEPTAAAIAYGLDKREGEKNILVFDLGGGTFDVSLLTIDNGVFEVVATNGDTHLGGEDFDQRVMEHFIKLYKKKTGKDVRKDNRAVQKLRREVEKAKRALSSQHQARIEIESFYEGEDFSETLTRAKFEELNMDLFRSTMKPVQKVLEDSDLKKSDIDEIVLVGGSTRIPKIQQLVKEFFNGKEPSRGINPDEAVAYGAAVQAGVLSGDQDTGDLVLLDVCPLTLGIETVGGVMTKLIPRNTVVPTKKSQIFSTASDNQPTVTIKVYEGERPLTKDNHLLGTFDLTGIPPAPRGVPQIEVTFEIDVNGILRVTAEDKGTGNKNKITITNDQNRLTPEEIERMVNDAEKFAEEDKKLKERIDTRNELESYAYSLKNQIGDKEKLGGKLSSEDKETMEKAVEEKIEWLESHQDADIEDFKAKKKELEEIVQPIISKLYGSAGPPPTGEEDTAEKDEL

Kd (BiP (Homo sapiens) [1]): 570 nM
Substance: ERdj1 (from UniProt Q96KC8)

Kd (BiP (Homo sapiens) [2]): 5000 nM
Substance: ERdj6 (from UniProt Q13217)

Kd (BiP (Homo sapiens) [3]): 830 nM
Substance: PERK luminal domain (from UniProt Q9NZJ5)

Kd (ERdj2 (Homo sapiens)): 5 nM
Substance: Sec62 (from UniProt Q99442)
